Data published in PMC9613979, “Endothelial alpha globin is a nitrite reductase” (Nature Communications, 2022).
No end group written: not given here. Alexa Fluor 488 = Alexa Fluor 488 fluorescent dye tag

Target: T1, recombinant eNOS oxygenase domain
T1 chain: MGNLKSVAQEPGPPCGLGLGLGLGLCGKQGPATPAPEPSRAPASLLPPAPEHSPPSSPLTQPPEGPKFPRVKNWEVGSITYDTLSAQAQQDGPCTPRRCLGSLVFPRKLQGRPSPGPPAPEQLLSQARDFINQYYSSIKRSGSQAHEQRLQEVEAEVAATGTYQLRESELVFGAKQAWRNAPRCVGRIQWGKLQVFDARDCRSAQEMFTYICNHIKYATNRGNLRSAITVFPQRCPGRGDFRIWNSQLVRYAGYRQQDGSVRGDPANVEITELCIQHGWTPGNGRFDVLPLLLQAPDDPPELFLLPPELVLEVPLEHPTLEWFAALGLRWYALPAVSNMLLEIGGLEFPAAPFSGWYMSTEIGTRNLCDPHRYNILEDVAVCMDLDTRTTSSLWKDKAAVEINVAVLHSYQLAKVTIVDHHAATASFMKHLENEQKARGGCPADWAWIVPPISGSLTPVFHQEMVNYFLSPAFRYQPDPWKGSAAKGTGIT
Experiment: fluorescence polarisation; 1 μM recombinant oxygenase domain of eNOS incubated with peptide labelled with Alexa Fluor 488 at the C-terminus; SpectraMax M5 plate reader; triplicate measurements per concentration
Conditions: both partners purified

## LSFPTTKTYF-{Alexa Fluor 488} (source: synthetic peptide (AnaSpec)) [alpha globin mimetic peptide (alpha globin binding sequence LSFPTTKTYF)]
  Kd: 16.8 nM
